Source: article PMC8096850, “Structure of the full-length human Pannexin1 channel and insights into its role in pyroptosis” (Cell Discovery, 2021)

Legend:
[1] = STED immunofluorescence, THP-1-derived macrophages; conditions: glycan lost; control: overexpressed WT hPANX1
[2] = molecular target: the molecule itself; test: cryo-EM structure; single-particle cryo-EM of purified hPANX1 at about 8 mg/ml in 20 mM Hepes pH 7.4, 150 mM NaCl, 0.1% digitonin; C7 symmetry; 3.15 Å

Row | Protein | localisation_or_trafficking [1] | stoichiometry N [2]
1 | human Pannexin1 (hPANX1): N255Q (protein) parent chain: MAIAQLATEYVFSDFLLKEPTEPKFKGLRLELAVDKMVTCIAVGLPLLLISLAFAQEISIGTQISCFSPSSFSWRQAAFVDSYCWAAVQQKNSLQSESGNLPLWLHKFFPYILLLFAILLYLPPLFWRFAAAPHICSDLKFIMEELDKVYNRAIKAAKSARDLDMRDGACSVPGVTENLGQSLWEVSESHFKYPIVEQYLKTKKNSNNLIIKYISCRLLTLIIILLACIYLGYYFSLSSLSDEFVCSIKSGILRNDSTVPDQFQCKLIAVGIFQLLSVINLVVYVLLAPVVVYTLFVPFRQKTDVLKVYEILPTFDVLHFKSEGYNDLSLYNLFLEENISEVKSYKCLKVLENIKSSGQGIDPMLLLTNLGMIKMDVVDGKTPMSAEMREEQGNQTAELQGMNIDSETKANNGEKNARQRLLDSSC | changes | 
2 | full-length human Pannexin1 with a Strep-tag II inserted after V172 (natural protein, UniProt Q96RD7 1-426, looked up, N-linked glycan at N255 (two N-acetylglucosamine and eight mannose), Pannexin1 (PANX1), Homo sapiens, full length; Homo-heptamer; Met1 is absent from the deposited hPANX1-MD model; The termini and the intracellular linker of the model rest on a locally sharpened map and MD flexible fitting; also called hPANX1; PANX1) MAIAQLATEYVFSDFLLKEPTEPKFKGLRLELAVDKMVTCIAVGLPLLLISLAFAQEISIGTQISCFSPSSFSWRQAAFVDSYCWAAVQQKNSLQSESGNLPLWLHKFFPYILLLFAILLYLPPLFWRFAAAPHICSDLKFIMEELDKVYNRAIKAAKSARDLDMRDGACSVPGVTENLGQSLWEVSESHFKYPIVEQYLKTKKNSNNLIIKYISCRLLTLIIILLACIYLGYYFSLSSLSDEFVCSIKSGILRNDSTVPDQFQCKLIAVGIFQLLSVINLVVYVLLAPVVVYTLFVPFRQKTDVLKVYEILPTFDVLHFKSEGYNDLSLYNLFLEENISEVKSYKCLKVLENIKSSGQGIDPMLLLTNLGMIKMDVVDGKTPMSAEMREEQGNQTAELQGMNIDSETKANNGEKNARQRLLDSSC |  | 7
